Measured values taken from patent publication US20130288364, “ENGINEERED KINETOCHORES AND USES THEREOF” (Whitehead Institute for Biomedical Research, published 2013).

Experiments:
CENP-T/CENP-W complex = CENP-T/CENP-W complex (Homo sapiens, UniProt Q96BT3;Q5EE01 Q96BT3:1-561,Q5EE01:1-88); assay: EMSA; 10 mM Tris pH 7.9, 150 mM KCl, 1 mM EDTA, 4 mM DTT, room temperature; 500 ng protein, 50 ng probe; details: tags: 6xHis-CENP-T (full length), untagged CENP-W, co-expressed from pST39 in bacteria; Gene ID 80152 / 387103; label: biotin
CENP-T/CENP-W complex, sequence (Q96BT3 whole entry, chain 1 of 2): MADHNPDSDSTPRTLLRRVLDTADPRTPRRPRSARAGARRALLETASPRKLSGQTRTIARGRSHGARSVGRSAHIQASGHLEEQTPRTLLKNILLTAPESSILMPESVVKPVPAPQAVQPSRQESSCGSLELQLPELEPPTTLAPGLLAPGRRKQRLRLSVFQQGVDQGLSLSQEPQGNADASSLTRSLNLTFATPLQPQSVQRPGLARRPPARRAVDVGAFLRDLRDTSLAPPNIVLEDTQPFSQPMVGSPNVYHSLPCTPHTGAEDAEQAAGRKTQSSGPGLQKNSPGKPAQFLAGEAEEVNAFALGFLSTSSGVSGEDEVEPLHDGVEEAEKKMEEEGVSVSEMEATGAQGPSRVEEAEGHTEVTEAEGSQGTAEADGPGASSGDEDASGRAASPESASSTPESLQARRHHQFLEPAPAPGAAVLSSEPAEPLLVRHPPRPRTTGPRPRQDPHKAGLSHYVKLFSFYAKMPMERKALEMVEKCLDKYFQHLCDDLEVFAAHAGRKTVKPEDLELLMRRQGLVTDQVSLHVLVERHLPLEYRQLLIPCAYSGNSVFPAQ
CENP-T/CENP-W complex, sequence (Q5EE01 whole entry, chain 2 of 2): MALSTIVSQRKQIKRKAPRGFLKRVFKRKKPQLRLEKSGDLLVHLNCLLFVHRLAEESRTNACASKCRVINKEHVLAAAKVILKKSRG
Description: (§1) In vitro DNA binding was assessed by Electro Mobility Shift Assay (EMSA). 500 ng of the indicated protein was incubated for 10 minutes at room temperature in binding buffer (10 mM Tris pH 7.9, 150 mM KCl, 1 mM EDTA, 4 mM DTT. 50 ng of a 20 bp biotinylated double stranded DNA probe […] corresponding to bp 21-40 of the alpha satellite DNA sequence was then added, and incubated for a further 20 minutes. Samples were then run on a 4% non denaturing arylamide gel, semi-dry transferred to nitrocellulose membrane, and blots processed using the Chemiluminescent nucleic acid detection system (Thermo) according to manufacturers instructions. Biotinylated DNA probe with detected with HRP-coupled streptavidin (Thermo).

CENP-T-ΔN/CENP-W complex = CENP-T-ΔN/CENP-W complex (Homo sapiens, UniProt Q96BT3;Q5EE01 Q96BT3:288-561,Q5EE01:1-88); assay: EMSA; retains DNA binding activity; details: tags: 6xHis-CENP-T, untagged CENP-W; label: biotin
CENP-T-ΔN/CENP-W complex, sequence (Q96BT3 288-561, stated change not applied, chain 1 of 2): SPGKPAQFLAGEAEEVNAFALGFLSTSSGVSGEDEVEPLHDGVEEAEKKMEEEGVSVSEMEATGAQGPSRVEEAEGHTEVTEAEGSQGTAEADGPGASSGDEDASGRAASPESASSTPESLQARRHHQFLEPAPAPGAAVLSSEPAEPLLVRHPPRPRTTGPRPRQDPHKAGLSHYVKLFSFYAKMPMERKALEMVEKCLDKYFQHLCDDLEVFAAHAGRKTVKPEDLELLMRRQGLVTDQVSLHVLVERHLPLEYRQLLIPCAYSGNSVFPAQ
CENP-T-ΔN/CENP-W complex, sequence (Q5EE01 whole entry, stated change not applied, chain 2 of 2): as the sequence (Q5EE01 whole entry, chain 2 of 2) above
Description: as §1

B1: alpha-satellite 20 bp probe (bp 21-40) (dsDNA)
DNA 1: CCTTTGAGGCCTTCGTTGGA
DNA 2: TCCAACGAAGGCCTCAAAGG
- binding result (CENP-T/CENP-W complex): binds
- binding result (CENP-T-ΔN/CENP-W complex): binds
